# Measured values published in US20250218531A1 (ABSCI, published 2025).
# Where a chain is given by its changes, count along the chain named. Where two headings read alike, the source gives them in different places.
# B1: De novo trastuzumab HCDR3 variant TRYFFNGWYYFDV (Fab, V domains shown)
# VH: EVQLVESGGGLVQPGGSLRLSCAASGFNIKDTYIHWVRQAPGKGLEWVARIYPTNGYTRYADSVKGRFTISADTSKNTAYLQMNSLRAEDTAVYYCTRYFFNGWYYFDVWGQGTLVTVSS
# VL: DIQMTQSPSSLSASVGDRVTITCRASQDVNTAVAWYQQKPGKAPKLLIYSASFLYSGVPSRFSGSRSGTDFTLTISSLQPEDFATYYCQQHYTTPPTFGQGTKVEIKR
# notes: Fab format
# B2: Trast_Her2_50 (Fab, V domains shown)
# VH: EVQLVESGGGLVQPGGSLRLSCAASGFNIKDTYIHWVRQAPGKGLEWVARIYPTNGYTRYADSVKGRFTISADTSKNTAYLQMNSLRAEDTAVYYCAKGWGVEPREFAYWGQGTLVTVSS
# VL: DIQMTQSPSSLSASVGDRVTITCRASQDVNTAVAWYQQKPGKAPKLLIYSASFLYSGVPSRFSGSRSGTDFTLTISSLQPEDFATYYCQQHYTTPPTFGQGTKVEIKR
# notes: also called HCDR3 AKGWGVEPREFAY
# B3: Trast_Her2_57 (Fab, V domains shown)
# VH: B2 VH with G99P, W100Y, G101Y, V102Y, E103F, P104S, R105D, E106G, F107L, A108E
# VL: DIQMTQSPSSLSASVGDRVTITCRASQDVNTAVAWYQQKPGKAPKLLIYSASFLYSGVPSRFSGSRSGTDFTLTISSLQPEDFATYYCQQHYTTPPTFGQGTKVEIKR
# notes: also called HCDR3 AKPYYYFSDGLEY
# B4: De novo trastuzumab HCDR3 variant ANDIYIQGYDLNR (Fab, V domains shown)
# VH: EVQLVESGGGLVQPGGSLRLSCAASGFNIKDTYIHWVRQAPGKGLEWVARIYPTNGYTRYADSVKGRFTISADTSKNTAYLQMNSLRAEDTAVYYCANDIYIQGYDLNRWGQGTLVTVSS
# VL: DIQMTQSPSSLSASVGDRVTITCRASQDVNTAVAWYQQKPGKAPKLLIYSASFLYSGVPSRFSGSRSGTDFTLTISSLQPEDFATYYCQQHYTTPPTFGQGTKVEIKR
# notes: Fab format
# B5: Trast_Her2_229 (Fab, V domains shown)
# VH: EVQLVESGGGLVQPGGSLRLSCAASGFNIKDTYIHWVRQAPGKGLEWVARIYPTNGYTRYADSVKGRFTISADTSKNTAYLQMNSLRAEDTAVYYCARFDRYGYYLGTWGQGTLVTVSS
# VL: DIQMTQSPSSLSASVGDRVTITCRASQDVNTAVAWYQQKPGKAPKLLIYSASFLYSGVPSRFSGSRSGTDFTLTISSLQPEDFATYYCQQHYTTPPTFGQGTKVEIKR
# notes: also called HCDR3 ARFDRYGYYLGT
# B6: Trast_Her2_230 (Fab, V domains shown)
# VH: B5 VH
# VL: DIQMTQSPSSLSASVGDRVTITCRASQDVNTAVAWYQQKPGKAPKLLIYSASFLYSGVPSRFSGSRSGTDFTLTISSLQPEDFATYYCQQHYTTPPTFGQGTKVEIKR
# notes: as for B5
# B7: Trast_Her2_58 (Fab, V domains shown)
# VH: B5 VH with R98K, F99R, R101F, Y102G, G103R, Y104D, Y105W, L106F, G107A, T108Y
# VL: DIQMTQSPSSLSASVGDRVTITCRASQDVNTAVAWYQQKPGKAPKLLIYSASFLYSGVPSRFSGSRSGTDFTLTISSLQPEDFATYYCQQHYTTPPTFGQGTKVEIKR
# notes: also called HCDR3 AKRDFGRDWFAY
# B8: Trast_Her2_59 (Fab, V domains shown)
# VH: B5 VH with R98K, F99R, D100N, R101A, G103R, Y104G, Y105S, G107D, T108Y
# VL: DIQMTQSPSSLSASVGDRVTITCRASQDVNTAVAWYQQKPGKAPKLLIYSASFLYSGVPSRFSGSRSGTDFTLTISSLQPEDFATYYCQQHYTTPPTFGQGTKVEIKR
# notes: also called HCDR3 AKRNAYRGSLDY
# B9: Trast_Her2_49 (Fab, V domains shown)
# VH: B5 VH with R98K, F99G, D100T, R101S, Y102S, G103W, Y105N, L106F, T108V
# VL: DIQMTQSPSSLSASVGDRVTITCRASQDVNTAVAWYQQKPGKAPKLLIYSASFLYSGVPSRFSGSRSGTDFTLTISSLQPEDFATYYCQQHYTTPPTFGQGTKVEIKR
# notes: also called HCDR3 AKGTSSWYNFGV
# B10: De novo trastuzumab HCDR3 variant ARYYYGFYYFDY (Fab, V domains shown)
# VH: B5 VH with F99Y, D100Y, R101Y, Y102G, G103F, L106F, G107D, T108Y
# VL: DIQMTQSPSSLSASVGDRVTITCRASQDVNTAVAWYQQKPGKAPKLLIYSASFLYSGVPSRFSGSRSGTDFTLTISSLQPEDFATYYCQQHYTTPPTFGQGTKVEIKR
# notes: Fab format
# B11: Trast_Her2_56 (Fab, V domains shown)
# VH: B5 VH with R98K, F99P, D100Y, R101Y, Y102F, G103N, Y105D, T108V
# VL: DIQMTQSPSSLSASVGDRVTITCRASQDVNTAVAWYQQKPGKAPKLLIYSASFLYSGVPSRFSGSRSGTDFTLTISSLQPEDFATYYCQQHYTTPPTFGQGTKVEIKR
# notes: also called HCDR3 AKPYYFNYDLGV
# B12: Trast_Her2_52 (Fab, V domains shown)
# VH: B5 VH with R98K, F99I, D100S, G103Y, Y105G, L106M, G107D, T108Y
# VL: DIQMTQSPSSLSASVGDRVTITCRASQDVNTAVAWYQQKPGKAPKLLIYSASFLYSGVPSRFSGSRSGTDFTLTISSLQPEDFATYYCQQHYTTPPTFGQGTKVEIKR
# notes: also called HCDR3 AKISRYYYGMDY
# B13: De novo trastuzumab HCDR3 variant ARYDYGYYIYVS (Fab, V domains shown)
# VH: B5 VH with F99Y, R101Y, Y102G, G103Y, Y105I, L106Y, G107V, T108S
# VL: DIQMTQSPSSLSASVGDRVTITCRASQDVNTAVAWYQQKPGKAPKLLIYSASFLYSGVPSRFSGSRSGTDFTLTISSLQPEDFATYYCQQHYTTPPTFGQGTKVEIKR
# notes: Fab format
# B14: Trast_Her2_12 (Fab, V domains shown)
# VH: B5 VH with R98G, F99H, D100W, R101T, G103R, Y104F, Y105A, L106D, G107T, T108L
# VL: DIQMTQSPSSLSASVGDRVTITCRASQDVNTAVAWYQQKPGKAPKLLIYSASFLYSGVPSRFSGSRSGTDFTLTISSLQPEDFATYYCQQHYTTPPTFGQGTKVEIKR
# notes: also called HCDR3 AGHWTYRFADTL
# B15: Trast_Her2_70 (Fab, V domains shown)
# VH: B5 VH with R98K, F99Y, R101Y, G103I, Y105D, L106F, G107D, T108I
# VL: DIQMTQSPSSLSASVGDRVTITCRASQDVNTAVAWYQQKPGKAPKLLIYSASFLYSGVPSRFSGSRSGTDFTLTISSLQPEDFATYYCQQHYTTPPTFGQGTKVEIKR
# notes: also called HCDR3 AKYDYYIYDFDI
# B16: Trast_Her2_231 (Fab, V domains shown)
# VH: B5 VH with D100G, R101I, Y102S, L106W, G107D, T108V
# VL: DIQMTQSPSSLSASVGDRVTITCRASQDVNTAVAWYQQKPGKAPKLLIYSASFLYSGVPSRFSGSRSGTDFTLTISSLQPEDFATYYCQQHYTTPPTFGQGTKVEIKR
# notes: also called HCDR3 ARFGISGYYWDV
# B17: Trast_Her2_131 (Fab, V domains shown)
# VH: EVQLVESGGGLVQPGGSLRLSCAASGFNIKDTYIHWVRQAPGKGLEWVARIYPTNGYTRYADSVKGRFTISADTSKNTAYLQMNSLRAEDTAVYYCARDGRYGYQDYWGQGTLVTVSS
# VL: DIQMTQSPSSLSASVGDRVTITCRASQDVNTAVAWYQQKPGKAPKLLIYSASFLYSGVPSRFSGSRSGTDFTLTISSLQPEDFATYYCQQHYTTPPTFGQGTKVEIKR
# notes: also called HCDR3 ARDGRYGYQDY
# B18: Trast_Her2_51 (Fab, V domains shown)
# VH: B17 VH with R98K, D99H, G100Y, R101D, Y102G, G103W, Y104I, Q105L, D106A
# VL: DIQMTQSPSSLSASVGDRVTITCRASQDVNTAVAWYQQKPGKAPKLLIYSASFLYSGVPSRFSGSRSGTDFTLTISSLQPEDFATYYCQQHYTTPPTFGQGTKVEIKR
# notes: also called HCDR3 AKHYDGWILAY
# B19: Trast_Her2_76 (Fab, V domains shown)
# VH: B17 VH with R98M, G100F, R101K, Y102F, G103T, Y104R, Q105L, Y107L
# VL: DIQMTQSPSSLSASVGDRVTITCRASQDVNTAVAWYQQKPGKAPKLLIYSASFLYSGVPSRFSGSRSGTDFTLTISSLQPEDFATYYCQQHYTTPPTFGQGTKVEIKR
# notes: also called HCDR3 AMDFKFTRLDL
# B20: Trast_Her2_54 (Fab, V domains shown)
# VH: B17 VH with R98K, D99N, G100F, R101L, Y102I, Y104T, Q105R, D106Y, Y107W
# VL: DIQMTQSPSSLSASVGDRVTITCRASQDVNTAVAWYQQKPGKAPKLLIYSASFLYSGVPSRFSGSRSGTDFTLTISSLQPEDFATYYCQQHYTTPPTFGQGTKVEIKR
# notes: also called HCDR3 AKNFLIGTRYW
# B21: De novo trastuzumab HCDR3 variant ARYAGVERPGSFAY (Fab, V domains shown)
# VH: EVQLVESGGGLVQPGGSLRLSCAASGFNIKDTYIHWVRQAPGKGLEWVARIYPTNGYTRYADSVKGRFTISADTSKNTAYLQMNSLRAEDTAVYYCARYAGVERPGSFAYWGQGTLVTVSS
# VL: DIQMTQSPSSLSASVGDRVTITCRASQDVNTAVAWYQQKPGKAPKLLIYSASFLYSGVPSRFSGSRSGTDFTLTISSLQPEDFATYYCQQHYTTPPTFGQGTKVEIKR
# notes: Fab format
# Assays:
# [1] = target: T1, human epidermal growth factor receptor 2 (HER2) extracellular domain (human, UniProt P04626 23-629); assay: SPR (Carterra LSA), Fab captured, HER2 ECD as analyte
# [2] = target: T1, human epidermal growth factor receptor …; assay: SPR, table row 9
# [3] = target: T1, human epidermal growth factor receptor …; assay: SPR, table row 27
# [4] = target: T1, human epidermal growth factor receptor …; assay: SPR, table row 21
# [5] = target: T1, human epidermal growth factor receptor …; assay: SPR, table row 25
# [6] = target: T1, human epidermal growth factor receptor …; assay: SPR, table row 39
# [7] = target: T1, human epidermal growth factor receptor …; assay: SPR, table row 38
# [8] = target: T1, human epidermal growth factor receptor …; assay: SPR, table row 42
# [9] = target: T1, human epidermal growth factor receptor …; assay: SPR, table row 29
# [10] = target: T1, human epidermal growth factor receptor …; assay: SPR, table row 32
# [11] = target: T1, human epidermal growth factor receptor …; assay: SPR, table row 35
# [12] = target: T1, human epidermal growth factor receptor …; assay: SPR, table row 1
# [13] = target: T1, human epidermal growth factor receptor …; assay: SPR, table row 7
# [14] = target: T1, human epidermal growth factor receptor …; assay: SPR, table row 33
# [15] = target: T1, human epidermal growth factor receptor …
# [16] = target: T1, human epidermal growth factor receptor …; assay: SPR, table row 3
# [17] = target: T1, human epidermal growth factor receptor …; assay: SPR, table row 2
# [18] = target: T1, human epidermal growth factor receptor …; assay: SPR, table row 26
# [19] = target: T1, human epidermal growth factor receptor …; assay: SPR, table row 34
# [20] = target: T1, human epidermal growth factor receptor …; assay: SPR, table row 30
# [21] = target: T1, human epidermal growth factor receptor …; assay: SPR, table row 18
# [22] = target: T1, human epidermal growth factor receptor …; assay: SPR, table row 4
# [23] = target: T1, human epidermal growth factor receptor …; assay: SPR, table row 10
# [24] = target: T1, human epidermal growth factor receptor …; assay: SPR, table row 5
# [25] = target: T1, human epidermal growth factor receptor …; assay: SPR, table row 28
# [26] = target: T1, human epidermal growth factor receptor …; assay: SPR, table row 40
# [27] = target: T1, human epidermal growth factor receptor …; assay: SPR, table row 8
binder,measurement,setting,value
B1,log10(KD),[1],-9.03 log10(M)
B2,Kd,[2],2.71 nM
same,koff,[2],4.19e-05 s⁻¹
same,kon,[2],15500 M⁻¹ s⁻¹
B3,Kd,[3],34.8 nM
same,koff,[3],0.000581 s⁻¹
same,kon,[3],16700 M⁻¹ s⁻¹
same,Kd,[4],15.6 nM
same,koff,[4],0.000321 s⁻¹
same,kon,[4],20600 M⁻¹ s⁻¹
B4,log10(KD),[1],-8.4 log10(M)
B5,Kd,[5],30.4 nM
same,koff,[5],0.000635 s⁻¹
same,kon,[5],20900 M⁻¹ s⁻¹
same,Kd,[6],114 nM
same,koff,[6],0.00201 s⁻¹
same,kon,[6],17700 M⁻¹ s⁻¹
B6,Kd,[7],104 nM
same,koff,[7],0.0023 s⁻¹
same,kon,[7],22100 M⁻¹ s⁻¹
same,Kd,[8],198 nM
same,koff,[8],0.0046 s⁻¹
same,kon,[8],23300 M⁻¹ s⁻¹
B7,Kd,[9],38.8 nM
same,koff,[9],0.000582 s⁻¹
same,kon,[9],15000 M⁻¹ s⁻¹
B8,Kd,[10],51.1 nM
same,koff,[10],0.000717 s⁻¹
same,kon,[10],14000 M⁻¹ s⁻¹
same,Kd,[11],64.9 nM
same,koff,[11],0.00077 s⁻¹
same,kon,[11],11900 M⁻¹ s⁻¹
B9,Kd,[12],≤ 0.517 nM
same,koff,[12],≤ 1e-05 s⁻¹
same,kon,[12],19300 M⁻¹ s⁻¹
B10,log10(KD),[1],-8.92 log10(M)
B11,Kd,[13],2.44 nM
same,koff,[13],2.42e-05 s⁻¹
same,kon,[13],9940 M⁻¹ s⁻¹
same,Kd,[14],56.8 nM
same,koff,[14],0.000933 s⁻¹
same,kon,[14],16400 M⁻¹ s⁻¹
B12,Kd,[15],9.01 nM
same,koff,[15],0.000127 s⁻¹
same,kon,[15],14100 M⁻¹ s⁻¹
same,Kd,[16],0.929 nM
same,koff,[16],1e-05 s⁻¹
same,kon,[16],10800 M⁻¹ s⁻¹
B13,log10(KD),[1],-8.02 log10(M)
B14,Kd,[17],≤ 0.792 nM
same,koff,[17],≤ 1e-05 s⁻¹
same,kon,[17],12600 M⁻¹ s⁻¹
B15,Kd,[15],19.4 nM
same,koff,[15],0.000369 s⁻¹
same,kon,[15],19000 M⁻¹ s⁻¹
same,Kd,[18],30.5 nM
same,koff,[18],0.000284 s⁻¹
same,kon,[18],9320 M⁻¹ s⁻¹
B16,Kd,[19],64.4 nM
same,koff,[19],0.0014 s⁻¹
same,kon,[19],21800 M⁻¹ s⁻¹
same,Kd,[20],43.3 nM
same,koff,[20],0.00106 s⁻¹
same,kon,[20],24500 M⁻¹ s⁻¹
B17,Kd,[21],8.06 nM
same,koff,[21],0.000202 s⁻¹
same,kon,[21],25000 M⁻¹ s⁻¹
same,Kd,[22],1 nM
same,koff,[22],1e-05 s⁻¹
same,kon,[22],9990 M⁻¹ s⁻¹
B18,Kd,[23],2.89 nM
same,koff,[23],4.35e-05 s⁻¹
same,kon,[23],15100 M⁻¹ s⁻¹
same,Kd,[24],1.03 nM
same,koff,[24],1e-05 s⁻¹
same,kon,[24],9680 M⁻¹ s⁻¹
B19,Kd,[25],36.4 nM
same,koff,[25],0.00127 s⁻¹
same,kon,[25],35000 M⁻¹ s⁻¹
same,Kd,[26],159 nM
same,koff,[26],0.00525 s⁻¹
same,kon,[26],33100 M⁻¹ s⁻¹
B20,Kd,[27],2.68 nM
same,koff,[27],4.11e-05 s⁻¹
same,kon,[27],15400 M⁻¹ s⁻¹
B21,log10(KD),[1],-6.24 log10(M)
